# Measurements taken from patent publication US20260209311A1, “MODIFIED G PROTEIN COUPLED RECEPTOR AND USE THEREOF” (ALPHELIX BIOTECH CO., LTD., priority 2023, published 2026).
# Assays:
# MC4R WT [1] = experiment: SPR; 1:1 kinetic, 25 C
# MC4R WT [2] = experiment: SPR; steady state affinity, 25 C
Substance,Kd (MC4R WT [1]) [nM],Kd (MC4R WT [2]) [nM]
SHU 9119,0.00837,5.74
a-MSH,155,313
Setmelanotide,35.3,9.72
